According to PMC3932411:

Legend:
[1] = I-V relationship; details: glycan lost; control: untreated WT (DMSO)
[2] = whole-cell patch clamp, +100 mV; details: glycan lost; control: untreated WT (DMSO)
[3] = cell surface biotinylation, Western blot; details: glycan lost; control: wild type
[4] = I-V relationship, plateau phase; details: glycan lost; control: wild type

| Substance | other: channel voltage dependence [1] | other: channel deactivation kinetics, other: deactivation slope [2] | localisation_or_trafficking [3] | other: channel voltage dependence [4] |
| --- | --- | --- | --- | --- |
| TRPM4 (TRPM4b): tunicamycin (10 μg/ml; 19 h) | no change | no change, 5265 ± 572 vs 4855 ± 379 | – | – |
| TRPM4 (TRPM4b): N992Q | – | – | no change | no change |
